Assay results published in US20160096894 (published 2016).

Columns and labels:
[1] = molecular target: T1, IGF-IR extracellular domain (human, UniProt P08069); assay: SPR, protocol 1
IGF-IR = IGF-IR (human, UniProt P08069); assay: competition, IGF-I blocking
[2] = molecular target: T1, IGF-IR extracellular domain; assay: SPR
[3] = molecular target: T1, IGF-IR extracellular domain; assay: SPR, protocol 2

Binder	Kd [1] [nM]	IC50 (IGF-IR) [µg/mL]	Kd [2] [nM]	Kd [3] [nM]
2.12.1 (antibody, V domains shown) VH: GRLGQAWRSLRLSCAASGFTFSDYYMSWIRQAPGKGLEWVSYISSSGSTRDYADSVKGRFTISRDNAKNSLYLQMNSLRAEDTAVYYCVRDGVETTFYYYYYGMDVWGQGTTVTVSS VL: ASVGDRVTFTCRASQDIRRDLGWYQQKPGKAPKRLIYAASRLQSGVPSRFSGSGSGTEFTLTISSLQPEDFATYYCLQHNNYPRTFGQGTEVEIIR	7.37	0.45		
2.14.3 (antibody, V domains shown) VH: GPGLVKPSETLSLTCTVSGGSISNYYWSWIRQPAGKGLEWIGRIYTSGSPNYNPSLKSRVTMSVDTSKNQFSLKLNSVTAADTAVYYCAVTIFGVVIIFDYWGQGTLVTVSS VL: SSLSASVGDRVTFTCRASQDIRRDLGWYQQKPGKAPKRLIYAASRLQSGVPSRFSGSGSGTEFTLTISSLQPEDFATYYCLQHNNYPRTFGQGTEVEIIR			0.641	
2.13.2 (antibody, V domains shown) VH: VQLLESGGGLVQPGGSLRLSCTASGFTFSSYAMNWVRQAPGKGLEWVSAISGSGGTTFYADSVKGRFTISRDNSRTTLYLQMNSLRAEDTAVYYCAKDLGWSDSYYYYYGMDVWGQGTTVTVSS VL: DIQMTQFPSSLSASVGDRVTITCRASQGIRNDLGWYQQKPGKAPKRLIYAASRLHRGVPSRFSGSGSGTEFTLTISSLQPEDFATYYCLQHNSYPCSFGQGTKLEIK	3.5	0.18		1.53
4.9.2 (antibody, V domains shown) VH: not shown VL: DIQMTQSPSSLSASVGDRVTITCRASQGIRSDLGWFQQKPGKAPKRLIYAASKLHRGVPSRFSGSGSGTEFTLTISRLQPEDFATYYCLQHNSYPLTFGGGTKVEIK	0.684	0.1		0.427
4.17.3 (antibody, V domains shown) VH: PGLVKPSETLSLTCTVSGGSISSYYWSWIRQPPGKGLEWIGYIYYSGSTNYNPSLKSRVTISVDTSKNQFSLKLSSVTAADTAVYYCARTYSSSFYYYGMDVWGQGTTVTVSS VL: GDRVTITCRASQSISTFLNWYQQKPGKAPKLLIHVASSLQGGVPSRFSGSGSGTDFTLTISSLQPEDFATYYCQQSYNAPLTFGGGTKVEIK			13	
6.1.1 (antibody, V domains shown) VH: EVQLLESGGGLVQPGGSLRLSCAASGFTFSSYAMSWVRQAPGKGLEWVSGITGSGGSTYYADSVKGRFTISRDNSKNTLYLQMNSLRAEDTAVYYCAKDPGTTVIMSWFDPWGQGTLVTVSS VL: RATLSCRASQSVRGRYLAWYQQKPGQAPRLLIYGASSRATGIPDRFSGSGSGTDFTLTISRLEPEDFAVFYCQQYGSSPRTFGQGTKVEIK			0.565	
